Experimental data: PMC3355305, “Localized Dimerization and Nucleoid Binding Drive Gradient Formation by the Bacterial Cell Division Inhibitor MipZ” (Molecular Cell, 2012)
Read-outs that look alike come from different tables or passages of the source.

Target: MipZ dimer
Experiment: Effect of ParB and parS-containing plasmid DNA on the ATPase activity of MipZ
Format: biochemical, Caulobacter crescentus
Settings: for Kd: read-out: K
Text: Figure 3 Interaction of MipZ with FtsZ and ParB (A) Effect of different mutations on the activity of MipZ. Strains MT177 (WT), DK2 (K13A), MT178 (G14V), MT179 (K18Q), and MT197 (D42A) were cultivated for 8 hr in conditions that prevent expression of wild-type mipZ while inducing expression of the indicated mipZ-yfp allele (the scale bar represents 2 μm). (B) Effect of MipZ and its mutant derivatives on the GTPase activity of FtsZ. Shown are the turnover numbers (kcat) of FtsZ in the absence of additional proteins (–) or in the presence of different MipZ variants or BSA. Data represent the average of at least three independent experiments (±SD). (C and D) SPR analysis of the interaction between MipZ and ParB. ParB (3800 RU) was immobilized on a sensor chip and probed with the indicated MipZ proteins (6 μM) in the presence of ADP (C) or ATP (D). (E) Colocalization of mutant MipZ variants with ParB. Strains DK3 (K13A), DK5 (G14V), DK6 (K18Q), and DK7 (D42A) were induced for 8 hr to synthesize CFP-ParB and the indicated MipZ-YFP variants in place of wild-type MipZ (the scale bar represents 2 μm). […] (F) Two-hybrid analysis of the interaction between MipZ and ParB. E. coli BTH101 was transformed with pairs of plasmids encoding the indicated derivatives of the T18 and T25 fragments of adenylate cyclase, respectively. Interaction is evidenced by the formation of red colonies. Positive control (+): T25-zip:T18-zip. (G) Effect of ParB on the ATPase activity of MipZ. The average turnover number (kapp) of MipZ was determined over a range of different MipZ concentrations. When appropriate, the reactions were supplemented with ParB and/or parS-containing plasmid DNA (pMT428; 3.6 kb). The data were approximated by the model used in Figure 2F, yielding the following K and kcat values: MipZ alone (7.1 μM and 0.61 min^−1), + ParB (2.6 μM and 0.77 min^−1), + DNA (6.0 μM and 1.5 min^−1), + ParB and DNA (1.6 μM and 1.6 min^−1). See also Figure S4.
Previous work has shown that, in the presence of parS-containing DNA, ParB stimulates the ATPase activity of ParA/Soj up to 60-fold ([Leonard et al., 2005; Scholefield et al., 2011]), probably by accelerating the rate of nucleotide hydrolysis. […] To clarify this issue, we reanalyzed the concentration dependence of MipZ's ATPase activity (compare Figure 2F) in the presence of both ParB and/or a plasmid that carried a chromosomal fragment containing all predicted C. crescentus parS sites (Figure 3G). […] Consequently, the MipZ dimer might be able to interact with DNA independently of ParB (as detailed below), leading to conformational adjustments that enhance its hydrolytic potential. […] Collectively, these findings argue against a role of ParB as an ATPase-activating factor. […]
obtained from crystals flash frozen in a solution of 95% 2 mM, sa mp le s were taken and analyzed for the amount ethanol/50 mM Tris (pH 8.5), and collected at ID23-2, of [α-32P]-GDP produced in the reaction as described ESRF (Grenoble, France). For apo-MipZ in crystal above. form 2, 768 standard conditions were screened in 200 nl To analyze the concentration dependence of MipZ’s sitting drops using a Microsys 4004 Cartesian robotics ATPase activity, varying amounts of MipZ were system and MipZ at a concentration of 10 mg/ml. incubated in buffer P containing 2 mM [α-32P]-ATP and Crystals obtained in a buffer containing 100 mM Hepes 0.3 mg/ml bovine serum albumin and assayed for (pH 7.5), 10% PEG 10000, 4% ethylene glycol and 30% hydrolytic activity as described above. glycerol were flash-frozen, and data were collected at To determine the effect of ParB on MipZ’s ATPase ID23-1, ESRF. activity, varying amounts of MipZ were incubated with All crystals were indexed and integrated using the ParB (4.5 µM) and/or plasmid pMT428 (3.6 kb, 0.2 MOSFLM package and further processed using the µM), which bears a chromosomal fragment containing […]

B1: MipZ: P loop ATPase and cell division inhibitor of Caulobacter crescentus; hexahistidine-tagged in vitro, YFP fusion in FRAP (protein)
chain: MAETRVIVVGNEKGGAGKSTIAVHLVTALLYGGAKVAVIDLDLRQRTSARFFENRRAWLDNKKIELPEPLALNLSDNDVALAERPEEEQVAGFEAAFARAMAECDFILIDTPGGDSAITRMAHGRADLVVTPMNDSFVDFDMLGTVDPVTLELTKPSLYSLTVWEGRKQRALSGQRQAMDWVVLRNRLATTEARNRKRLEDRLNALAKRVGFRIGPGLRDRVIYRELFPFGLTIADLSPQVRPVPVSLQHLAARQELRALMHSLGLSAYSGETMLAAQ
modifications: left off: His6, end not stated, state not stated
notes: hexahistidine-tagged in vitro, YFP fusion in FRAP
B1 was tested, and the Kd (+ DNA (pMT428, 0.2 µM)) was 6 µM, the Kd (+ ParB (4.5 µM)) was 2.6 µM and the Kd (+ ParB and DNA) was 1.6 µM. The kcat (MipZ alone) was 0.0102 s⁻¹, the Kd (MipZ alone) was 7.1 µM and the “increase in the catalytic activity of the dimeric complex (kcat)” value (upon addition of DNA) was ~2 fold. For the same molecule, the “decrease in the apparent equilibrium dissociation constant of the dimeric complex” value (upon addition of ParB) was ~4 fold.
